Laboratory results from the DeepSol protein solubility set.

Assay: soluble on expression in E. coli; label from the status in PepcDB or PDB records

MGSDKIHHHHHHMPECSKAWAVREEPELLTDRRHTDDGGEFVSQPRIIEPAIRTLIDTPLRVGESPTWDERTGDLWFVDILAPAIFCLSPSGKLQRFDMPAQIGCLGLCQSNLIVAALKTGVHLLNPQNGELELLCDPDEGRADSRLNDGKVGPDGHFWVGTRDEADVPTGNARLYRVSSSGHVERFIDGDMLTSNGLAWSPDETRMYHSDSSGLLLQVFDFDVQTGRLGPAKRLHDFQPDEGRPDGAATDSEGCYWSAGVQAGRLNRFTPDGELFEIYKMPFKGPTMPCFGGPELKTLYVTSLVTDTNGVATSGTLVAFDAPVAGAPIHKFPL
soluble on expression in E. coli: not soluble

MSLTKPIIGITANVRPNPAHEDIKWSYAPSGFVEGVQKAGGLAILLPVSDPLEAKTYISMIDKLILIGGQNIDPKFYNEENHACEDDFFLERDLFEMALIEEATKQKKPIFSICRGTQLMNVALGGSLHQDIKRHWQDKPSDYLYHEIIIDKNSKLAEIYGLETSINSFHHQSIKHLASDLRVIARDPEDNTVEAIESNTPDLRYLGVQWHPELLLNKREEDLKLFEYVVDELEGHHHHHH
soluble on expression in E. coli: soluble

SNAPLKEQKVINTANIKTNSKLDLAEYENGLINIATQQFDTESHVLQLNQYIPEKLIDELVAKVEAPVLTNIIEQDYFGKQNSNELSLSGVMIGLAMSSSVSNEEAMSKGTEVAKQLIEAINKNDKYNKSPITFAIFKQESTSSLKNGTYIASATVQKNDTNLGNWSTIDEKSYSYPSDEFTQAHGEDNTKINNFAKEIKGFSNGDFIPVNAKVSYKKDQMDTLNMNIVIKYNGKTELMALTQLAAQGMLDKLPKDAKVQLQIKSESKIEAVIIKEKNSDKPFVSFL
soluble on expression in E. coli: soluble

MQLDRVDRKILNELYNDSRLSMRELAKRVNLSAPSTSERVRKLESEGVIQKYTIDIDYKKAGLVLDCILEITLKNGDTTRMQQFIQSYPSASFCYRVTGSLCYIVKISVPSLVELEEFINDVSSYATTVSHIVLSEVSLTPDIEHIFPED
soluble on expression in E. coli: not soluble

MGSDKIHHHHHHMLVENSHTPDALAEAFATVDGLMATGKFARSLSVMLPFVQTGELDAGLLDRTADCFFEMRDYENAVNVMRHVTATWPDDPSAWGKLGLMLQTKGDLLGAEQAFEEVLKRDPNSIPALTALNGIETFSVDSLYAQRLMSLSEREDLDAKHRALIHYALAQIAHGSGEAEVAFTLFQSARNEVAGPFAPAIFDEMVAEQEALFEPRPASEDASLLPKLVFIGGMPMSGTGLVDRILAQHPGVFSVGAKTALSRTHGAIRMHLAKTDRPCNYWDWMEHLSAEEIDIFRQYYLERALGGQVAGGKTIVDAHPLGCLEFGLAQFLFPEAKFVFMSRHPMDTALANIASNVLNGNALASRTEWIAQVMRTVYSSATVYASKLGDSMRLQSYEALVQNSEREIGLLLEHAGLEYNAACLTPNALCDVPQIATMLGQEELSTETQNQWLPYEEQLQGFYEQLGGERWVSAWEDFDKTLR
soluble on expression in E. coli: not soluble

MSLSSPNILLTRIDNRLVHGQVGVTWTSTIGANLLVVVDDVVANDDIQQKLMGITAETYGFGIRFFTIEKTINVIGKAAPHQKIFLICRTPQTVRKLVEGGIDLKDVNVGNMHFSEGKKQISSKVYVDDQDLTDLRFIKQRGVNVFIQDVPGDQKEQIPDEGHHHHHH
soluble on expression in E. coli: soluble

SWMEEVIKLCGRELVRAQIAICGMSTWS
soluble on expression in E. coli: soluble

GPGSMEGPFLSRSIQYVERWLAEIVATKGTRAAATGSSEKAVAQKRGKATATAAAETGATSMSKCRFVVGRVNSVRPHPESQKLYIEEIDLGEEGGKCRTILSGLQEYVKQEDFLNRLVLVIANLEPRKIGGIPSEGMVLCASCNDEGSRSVVLLDVPEGTPVGERILFEGHEGPYEPVLKKKLAKHFEEVAAELRTNDKGEVVWRDMPFRTSCGIITASIPNGSVS
soluble on expression in E. coli: not soluble

MLLHLPNGDVLCVWFGGTQEGIADISIYMSRLVKDSGSWSKAAKLSEDATRSEQNPVLFLAPDNVLWLLYTAQKSGNQDTAIVRYRQSTDLGATWGEIGTLLDQPGTFIRQPITVLENGDWLLPVFYCRVQPGEKWVGNDDDSAVKISSDQGKTWREYPVPNSTGCVHMNITPLQDGTLLALYRSRWADFIYQSRSTDGGKTWSEPVATDLPNNNSSIQVTTLKNGHLALVFNHMSAADATDRRLSLYDELEHHHHHH
soluble on expression in E. coli: soluble

MAFLDNPTIILAHIRQSHVTSDDTGMCEMVLIDHDVDLEKIHPPSMPGDSGSEIQGSNGETQGYVYAQSVDITSSWDFGIRRRSNTAQRLERLRKERQNQIKCKNIQWKERNSKQSAQELKSLFEKKSLKEKPPISGKQSILSVRLEQCPLQLNNPFNEYSKFDGKGHVGTTATKKIDVYLPLHSSQDRLLPMTVVTMASARVQDLIGLICWQYTSEGREPKLNDNVSAYCLHIAEDDGEVDTDFPPLDSNEPIHKFGFSTLALVEKYSSPGLTSKESLFVRINAAHGFSLIQVDNTKVTMKEILLKAVKRRKGSQKVSGSRADGVFEEDSQIDIATVQDMLSSHHYKSFKVSMIHRLRFTTDVQLGISGDKVEIDPVTNQKASTKFWIKQKPISIDSDLLCACDLAEEKSPSHAIFKLTYLSNHDYKHLYFESDAATVNEIVLKVNYILESRASTARADYFAQKQRKLNRRTSFSFQKEKKSGQQ
soluble on expression in E. coli: soluble

MIVTTAGRTNKEMTDYANEVAAELNASFVKRNDIPVHKLHEQYEQDVLVVGKNRLAIYPKGTEESFFFHPNSAMFRVKRLMRGEHDPFVQATQLERGMTVLDCTLGMASDSIVASYVVGESGKVTGLEGNEYMAYIMENGLKTWSSSVSEIDEAMQRIQVKQTEHFSFLAQCEDNSYDVVYLDPMFEETVIESDGIKGLKHFALYHDITDETIAEAKRVARKRVVLKDHFRSSRFEKHNFYVYKRKSAKFHFGVIDPC
soluble on expression in E. coli: not soluble

MGSDKIHHHHHHMTSILPLPDPQPSDATNTDTSSLNWEEELDSAIFSFEDIQAELNYKQAQSALRNLVGNIDLSSQEKAGLESEIADLETMLGKLDSMVVQIAAFGMVGRGKSSLLNALVGESVFETGPLHGVTRAAQRVNWRISEEAIGETERALRVTLPSVGRSQVELIDTPGLDEIDGETRTALAEQIAKQADLILFVISGDMTKIEHEALSQLREAGKPIILVFNKVDQYPEADRMAIYQKIRDERVRELLTPLEIVMAAASPLVKTAVRRPDGSRGVQVRTGNAQVAELQVKILEILQREGKALVALNTMLFADNVNEQLVQRKLMIREQNANQLIWKAVMTKAVAIALNPVTVVDILSSIVIDVSLILGLSKLYGIPMTEAGAVQLLQKIALSMGGIGVSELLANLGLSGLKTLLGISATATAGVAIGPYISVALTQAGVAGVSSYAIGQVTTVYLANGATWGPDGPKAVINRILSTLDENSILNRIKDELQVKLRRE
soluble on expression in E. coli: not soluble

GGVRPATNAYGGGSTTDNPNRFMYYPSHPVPGTQGGVVLAAYSWSDDAARWDSFDDAERYGYALENLQSVHGRRIEVFYTGAGQTQSWLRDPYACGEAAVYTPHQMTAFHLDVVRPEGPVYFAGEHVSLKHAWIEGAVETAVRAAIAVNEAPVGDTGVTAAAGRRGAAAATEPMREEALTS
soluble on expression in E. coli: soluble

MRKITSVSVGEQLDSFITRMVQSGRYGSASEVMRSALRLLEQQESRDEAVRNAVIEGLESGESSMTLRDIAAERKQKHRV
soluble on expression in E. coli: soluble

MGRLDGKVIILTAAAQGIGQAAALAFAREGAKVIATDINESKLQELEKYPGIQTRVLDVTKKKQIDQFANEVERLDVLFNVAGFVHHGTVLDCEEKDWDFSMNLNVRSMYLMIKAFLPKMLAQKSGNIINMSSVASSVKGVVNRCVYSTTKAAVIGLTKSVAADFIQQGIRCNCVCPGTVDTPSLQERIQARGNPEEARNDFLKRQKTGRFATAEEIAMLCVYLASDESAYVTGNPVIIDGGWSLG
soluble on expression in E. coli: soluble

MGSDKIHHHHHHMSNNKCITVIGGVYIERYAWPHWDELYGSGGRALSVLQSLGCATKLYSCLNKDSANILQARAGIYKTSFEICSSLKESYRPIKFHYLHGLSTPQISAITTEFAQQNEIIEDNILVFGMLEGNPTISGNKVVYDPQNPISPKDFSENGSTANELAIVLNTNEAYKLIKNRNLSLDEIAYELIKNKAKVVIIKQGVRGVNIYQKLNDRYIKKDSVPCYFTKNVWKIGSGDCFSAHFAYQWIYEGKTPTEAAELASKATAYYCETRGYPSFEEFTNWKNRVQPITHRHSEKKVTVYLAGPFFTLSQIWLINETRRLLSEMGLIVFSPYHEIGTGDAIMVVPKDIDGINNSDIIFAIFDGKDSGTIFEIGYATAKNKPVIVYNENEKSEDLKMMEGTDCIVIKDYVSAIYRTLWESQKL
soluble on expression in E. coli: not soluble

MVEIDPFEMAVKQLERAAQYMDISEEALEWLKKPMRIVEVSVPIEMDDGSVKVFTGFRVQHNWARGPTKGGIRWHPAETLSTVKALATWMTWKVAVVDLPYGGGKGGIIVNPKELSEREQERLARAYIRAVYDVIGPWTDIPAPDVYTNPKIMGWMMDEYETIMRRKGPAFGVITGKPLSIGGSLGRGTATAQGAIFTIREAAKALGIDLKGKKIAVQGYGNAGYYTAKLAKEQLGMTVVAVSDSRGGIYNPDGLDPDEVLKWKREHGSVKDFPGATNITNEELLELEVDVLAPAAIEEVITEKNADNIKAKIVAEVANGPVTPEADDILREKGILQIPDFLCNAGGVTVSYFEWVQNINGYYWTEEEVREKLDKKMTKAFWEVYNTHKDKNIHMRDAAYVVAVSRVYQAMKDRGWVKK
soluble on expression in E. coli: soluble

WYNFTKRAVKIVLIPVSWFMKAERFAKFENNISEKIDSFYEESVRMTKDWR
soluble on expression in E. coli: not soluble

MDDLPYLARGVMPVETPSSVLVSSSKYLNNPRLREWLAMILLRKNGPDFPPPAEMYEFLPILEELRDHDRIEAMFAEERRVNPELDAWLSEGFYSTYAIEDFRQFAPGTLGGIFYQWITEGNYEIQITPWREPKSQLEFYNLRSGQTHDFEHILCGGGFNFMGELVPYWYRLTNVFKHIRNQELAAELSMIQIFGSLRYTVRTMLHYPQIWMTCVDAIQRGMKVGQESDALFMKKLEPHFHLPLEEARAALGVRGAVDVDTEIEGAFWAGRAPLSALTERIAAELEHHHHHH
soluble on expression in E. coli: soluble

MGNYKFRISEMLPNAWFHKLKDVTKHSKPKNKASSSSSNTCSKKKPSSDSLPQHSYFSNSLVANNPPHHNSPRNSLHTKKMSKRKTLYKPSLKPLTPPPLLVSASFNKSKINDQDSSYSLFPAIETSPESFVYSFYEEDDDDEFVEFSNFKINTKNKAFTKQKVKVIDSVEKACTASKPIKKPQKSHLSVKISRDEDDNEYKAEKKYQRQVSSGRKPSAGINLKRVNSPRIQLSGTRRSTSRRSESKQDVLESFAVMKRSVDPKKDFRESMIEMIEENNIRASKDLEDLLACYLTLNPKEYHDLIIHVFEQIWLQLTKTK
soluble on expression in E. coli: soluble

MSLQSEKTEAVVTLGANLTKSERLQMLDAFGVKANEVKIIDVTNQDIREQLGLDTSKPIPASSQSISSSYVVVKDKGGINVTTNNLTEVTGSMLANALLTSGVNNADVKADAPFKVTGTAALAGILKGFEDASGEELSLPKKEAAREEISLTNNLSNAKTKDGQTLGKDEAAVVVNDIKTDVIKDKPKNDEEIGKIVNNVTNNYNILLTQGQQEQTIKFMSKINDLDYNYGAMKESLNQMNDKLQQILKDTGKQLEESGLLEKALNGIKNVLVDIKDFLVNMFSSASEKVKDGITYDENGNIVIKTGNNSDESKNEESIQDKPQTQSNDNNQNQENEQGQNQTKEGHHHHHH
soluble on expression in E. coli: not soluble

STDDKDVLRDVWFGRIPTCFTLYQDEITEREAEPYYLLLPRVSYLTLVTDKVKKHFQKVMRQEDVSEIWFEYEGTPLKWHYPIGLLFDLLASSSALPWNITVHFKSFPEKDLLHCPCKDAVEAHFMSCVKEADALKHKSQVINEMQRKDHKQLWMGLQNDLTSFGPSTGNSWNTLQKKMDFVISLLEYIRPQLNGLSFRSCSVLWPQMDSCIPLEIS
soluble on expression in E. coli: soluble
